Experimental data as given in US20260248946A1 (TUOJIE BIOTECH SHANGHAI, published 2026).

Experiments:
[1] = molecular target: T1, human CD79B on the surface of cells (DoHH2 / DOHH-2, WSU-DLCL2) (human, UniProt P40259 29-229); assay: FACS on DoHH2 cells
T1 construct: whole, on cells; also called CD79B protein on the surface of DoHH2 cells; DoHH2 cell
T1 sequence (looked up): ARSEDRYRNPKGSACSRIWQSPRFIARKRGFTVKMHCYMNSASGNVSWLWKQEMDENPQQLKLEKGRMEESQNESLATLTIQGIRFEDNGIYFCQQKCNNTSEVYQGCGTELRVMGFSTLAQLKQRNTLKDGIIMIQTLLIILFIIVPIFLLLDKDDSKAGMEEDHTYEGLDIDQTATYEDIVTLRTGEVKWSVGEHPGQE

[2] = molecular target: T2, fusion protein of human CD79B extracellular domain (ECD) and His tag (human, UniProt P40259 29-159); assay: ELISA on Human CD79B-His protein
T2 construct: also called human CD79B ECD-His; Human CD79B-His protein
T2 sequence: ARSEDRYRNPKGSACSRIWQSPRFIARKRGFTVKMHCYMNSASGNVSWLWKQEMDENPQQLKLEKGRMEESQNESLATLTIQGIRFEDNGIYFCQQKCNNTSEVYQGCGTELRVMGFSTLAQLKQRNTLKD

[3] = molecular target: T2, fusion protein of human CD79B …; assay: SPR, Human CD79B-His protein
[4] = molecular target: T3, human CD79B-His protein (Cat. #29750-H08H, Sino Biological) (human, UniProt P40259 29-159); assay: Biacore T200, antibody captured by anti-human capture antibody on CM5, 1:1 Langmuir fit; EC50
T3 construct: also called human CD79B protein; CD79B protein
T3 sequence (looked up): T2 sequence
Excerpt: Experimental procedures: human antibody capture antibodies were covalently coupled to a CM5 biochip according to the method described instructions of the human antibody capture kit for affinity capture of a certain amount of CD79B antibody.
Statistics and analysis of data: data were fitted by BIAevaluation version 4.1, GE software using a (1:1) Langmuir model to obtain affinity values.

B1: hAb015-10 (antibody, human IgG1, kappa, V domains shown)
VH: EVQLVQSGAEVKKPGSSVKVSCKASGSSFSSYGINWVKQAPGQGLEWIGEIFPRSGNTYYNEKFEGRATLTADKSTSTAYMELRSLRSEDTAVYYCAKGDLGDFDYWGQGTTVTVSS
VL: DFVMTQTPLSLPVTPGEPASISCRSSQSIVHSDGNTYFEWYLQKPGQSPKLLIYKVSNRFSGVPDRFSGSGSGTDFTLKISRVEAEDVGVYYCFQGSHVPWTFGGGTKVEIKR
notes: Humanized antibody; also called hAb015-10 humanized antibody; humanized mAb015
In the case of B1, the EC50 [1] is reported as 0.4 nM, the EC50 [2] is reported as 0.05 nM and the Kd [3] is reported as 1.5 nM. It also gave an EC50 [4] of 0.38 nM.
